From publication PMC10647171

Legend:
Assay in all cases: potentiometry
[1] = molecular target: His31 (position 31, TTGDCH-----); conditions: 298 K, 0.1 M NaClO4, none (4 mM HClO4, 0.1 M NaClO4)
[2] = molecular target: Glu10 (position 10, …); conditions: 298 K, 0.1 M NaClO4, none (4 mM HClO4, 0.1 M NaClO4)
[3] = molecular target: Cterm31 (position 31, TTGDCH-----); conditions: 298 K; 0.1 M NaClO4; none (4 mM HClO4, 0.1 M NaClO4); free peptide, no metal, thiols reduced (argon atmosphere)
[4] = molecular target: Cys30 (position 30, STTGDCH----); conditions: 298 K; 0.1 M NaClO4; none (4 mM HClO4, 0.1 M NaClO4); Zn(II)-bound mononuclear 1:1 complex
[5] = molecular target: His31 (UniProt position 773, TTGDCH-----); conditions: 298 K, 0.1 M NaClO4, none (4 mM HClO4, 0.1 M NaClO4)
[6] = molecular target: Asp29 (UniProt position 771, ASTTGDCH---); conditions: 298 K; 0.1 M NaClO4; none (4 mM HClO4, 0.1 M NaClO4); free peptide, no metal, thiols reduced (argon atmosphere)
[7] = molecular target: Cterm31 (UniProt position 773, TTGDCH-----); conditions: 298 K; 0.1 M NaClO4; none (4 mM HClO4, 0.1 M NaClO4); free peptide, no metal, thiols reduced (argon atmosphere)
[8] = molecular target: Cys30 (UniProt position 772, STTGDCH----); conditions: 298 K; 0.1 M NaClO4; none (4 mM HClO4, 0.1 M NaClO4); Zn(II)-bound mononuclear 1:1 complex
[9] = Fe(II)-bound mononuclear 1:1 complex, anaerobic
[10] = Mn(II)-bound mononuclear 1:1 complex
[11] = Zn(II)-bound mononuclear 1:1 complex
[12] = free peptide, no metal, thiols reduced (argon atmosphere)

Protein: RRARSRVDIELLATRKSVSSCCAASTTGDCH [FeoB C-terminal peptide P2 (Ac-RRARSRVDIELLATRKSVSSCCAASTTGDCH, FeoB 743-773) (Escherichia coli K12)]
- pKa [1, 9]: 4.90
- pKa [1, 10]: 5.20
- pKa [1, 11]: 5.74
- pKa [1, 12]: 6.73
- pKa [2, 9]: 4.13
- pKa [2, 10]: 3.64
- pKa [2, 12]: 4.38
- pKa [3]: 2.15
- pKa [4]: 7.75

Protein: CCAASTTGDCH [FeoB C-terminal peptide P1 (Ac-CCAASTTGDCH, FeoB 763-773) (Escherichia coli K12)]
- pKa [5, 9]: 4.68
- pKa [5, 10]: 6.46
- pKa [5, 11]: 5.91
- pKa [5, 12]: 6.96
- pKa [6]: 4.19
- pKa [7]: 3.37
- pKa [8]: 7.27
